Measurements taken from publication doi:10.1101/2021.12.07.471597 (bioRxiv, 2021).

How the values were obtained:
[1] = biological target: biotinylated SARS-CoV-2 RBD (Wuhan) (SARS-CoV-2, UniProt P0DTC2, biotin); assay: flow cytometry on cells
VHH72.65-Fc = VHH72.65-Fc (llama); assay: BLI
VHH72.66-Fc = VHH72.66-Fc (llama); assay: BLI
VHH72.6-Fc = VHH72.6-Fc (llama); assay: BLI
VHH72.71-Fc = VHH72.71-Fc (llama); assay: BLI
VHH72.76-Fc = VHH72.76-Fc (llama); assay: BLI
VHH72-Fc = VHH72-Fc (llama); assay: BLI

Measured: binding result

B1: VHH72 displayed on yeast (VHH)
VHH: QVQLQESGGGLVQAGGSLRLSCAASGRTFSEYAMGWFRQAPGKEREFVATISWSGGSTYYTDSVKGRFTISRDNAKNTVYLQMNSLKPDDTAVYYCAAAGLGTVVSEWDYDYDYWGQGTQVTVSS
binds: [1]

B2: SARS-CoV-1 RBD (domain or fragment)
chain: not shown
not listed: [1]
binds: all other assays above
